Reference: IntAct's records for PubMed 9278513

B1: Phytochrome-like protein Cph1 (Synechocystis sp. (strain PCC 6803 / Kazusa)), Q55168 (parent)
chain: MATTVQLSDQSLRQLETLAIHTAHLIQPHGLVVVLQEPDLTISQISANCTGILGRSPEDLLGRTLGEVFDSFQIDPIQSRLTAGQISSLNPSKLWARVMGDDFVIFDGVFHRNSDGLLVCELEPAYTSDNLPFLGFYHMANAALNRLRQQANLRDFYDVIVEEVRRMTGFDRVMLYRFDENNHGDVIAEDKRDDMEPYLGLHYPESDIPQPARRLFIHNPIRVIPDVYGVAVPLTPAVNPSTNRAVDLTESILRSAYHCHLTYLKNMGVGASLTISLIKDGHLWGLIACHHQTPKVIPFELRKACEFFGRVVFSNISAQEDTETFDYRVQLAEHEAVLLDKMTTAADFVEGLTNHPDRLLGLTGSQGAAICFGEKLILVGETPDEKAVQYLLQWLENREVQDVFFTSSLSQIYPDAVNFKSVASGLLAIPIARHNFLLWFRPEVLQTVNWGGDPNHAYEATQEDGKIELHPRQSFDLWKEIVRLQSLPWQSVEIQSALALKKAIVNLILRQAEELAQLARNLERSNADLKKFAYIASHDLQEPLNQVSNYVQLLEMRYSEALDEDAKDFIDFAVTGVSLMQTLIDDILTYAKVDTQYAQLTFTDVQEVVDKALANLKQRIEESGAEIEVGSMPAVMADQIQLMQVFQNLIANGIKFAGDKSPKIKIWGDRQEDAWVFAVQDNGIGIDPQFFERIFVIFQRLHTRDEYKGTGMGLAICKKIIEGHQGQIWLESNPGEGSTFYFSIPIGN
partner: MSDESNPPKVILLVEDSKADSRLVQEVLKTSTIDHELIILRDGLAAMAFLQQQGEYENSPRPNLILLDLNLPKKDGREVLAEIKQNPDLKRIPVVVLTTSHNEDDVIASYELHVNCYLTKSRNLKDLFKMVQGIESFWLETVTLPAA
B2: Response regulator Rcp1 (Synechocystis sp. (strain PCC 6803 / Kazusa)), Q55169 (parent)
chain: B1 partner

Variants of: B1
Conditions: with rcp1_syny3 rcp1, Q55169

| Variant | effect of a mutation on the interaction |
| --- | --- |
| H538K | disrupting interaction |

Variants of: B2
Conditions: with phy1_syny3 cph1, Q55168

| Variant | effect of a mutation on the interaction |
| --- | --- |
| MSDESNPPKVILLVEDSKADSRLVQEVLKTSTIDHELIILRDGLAAMAFLQQQGEYENSPRPNLILLALNLPKKDGREVLAEIKQNPDLKRIPVVVLTTSHNEDDVIASYELHVNCYLTKSRNLKDLFKMVQGIESFWLETVTLPAA [D68A] | disrupting interaction |
